Reference: doi:10.1101/2020.05.08.084889 (bioRxiv, 2020)

B1: Desmocollin-3 complete extracellular region, biotinylated (Dsc3-ATH) (domain or fragment)
chain: RWAPIPCSMQENSLGPFPLFLQQVESDAAQNYTVFYSISGRGVDKEPLNLFYIERDTGNLFCTRPVDREEYDVFDLIAYASTADGYSADLPLPLPIRVEDENDNHPVFTEAIYNFEVLESSRPGTTVGVVCATDRDEPDTMHTRLKYSILQQTPRSPGLFSVHPSTGVITTVSHYLDREVVDKYSLIMKVQDMDGQFFGLIGTSTCIITVTDSNDNAPTFRQNAYEAFVEENAFNVEILRIPIEDKDLINTANWRVNFTILKGNENGHFKISTDKETNEGVLSVVKPLNYEENRQVNLEIGVNNEAPFARDIPRVTALNRALVTVHVRDLDEGPECTPAAQYVRIKENLAVGSKINGYKAYDPENRNGNGLRYKKLHDPKGWITIDEISGSIITSKILDREVETPKNELYNITVLAIDKDDRSCTGTLAVNIEDVNDNPPEILQEYVVICKPKMGYTDILAVDPDEPVHGAPFYFSLPNTSPEISRLWSLTKVNDTAARLSYQKNAGFQEYTIPITVKDRAGQAATKLLRVNLCECTHPTQCRATSRSTGVILGK
modifications: biotin on the Avi-tag (BirA enzyme)
B2: Recombinant rat EfnB1-FC (Fc fusion)
chain: ATPLAKNLEPVSWSSLNPKFLSGKGLVIYPKIGDKLDIICPRAEAGRPYEYYKLYLVRPEQAAACSTVLDPNVLVTCNKPQQEIRFTIKFQEFSPNYMGLEFKKYHDYYITSTSNGSLEGLENREGGVCRTRTMKIVMKVGQDPNAVTPEQLTTSRPSKESDNTVKTATQAPGRGSQGDSDGKHETVNQQEKSGPGAGGSGSGDTDSFFNSK
B3: E-cadherin complete extracellular region, biotinylated (Ecad-ATH) (domain or fragment)
chain: DWVIPPISCPENEKGPFPKNLVQIKSNRDKEIKVFYSITGQGADAPPVGVFIIERETGWLKVTEPLDREQIAKYILYSHAVSSNGNAVEDPMEIVITVTDQNDNKPEFTQAVFQGSVTEGALPGTSVMQVTATDADDDVNTYNAAIAYSILTQDPLLPSSMMFTINKDTGVISVLTTGLDREGVPMYTLVVQAADLQGEGLTTTATAVITVTDINDNPPIFNPTTYQGRVPENKANVEIAVLKVTDADVPDTPAWRAVYTILNNNNDQFVVTTDPVTNDGILKTTKGLDFEDKQQYVLYVTVVNVTPFEVILSTSTATVTVDVEDVNEAPIFIPCPKVVSIPEDFGVGQEITSYTAEDPDTYMEQRITYRIWRDAAGWLEVNPESGAIFTRAELDREDFEHVKNSTYEALIIAIDNGSPVATGTGTLLLVLSDVNDNGPIPEPRNMDFCQKNPQPHVINIIDPDLPPNTSPFTAELTHGASVNWTIEYNDPARESLILKPKKTLELGDYKINLKLTDNQNKDQVTTLDVFVCDCEGVVNSCKRTAPYAEAGLQVPA
modifications: biotin on the Avi-tag (BirA enzyme)

Experiments:
[1] = molecular target: the molecule itself; assay: single molecule AFM force measurement
[2] = molecular target: B2; assay: single molecule AFM force measurement

| Binder | binding result [1] | fold of heterophilic binding over EfnB1 homophilic binding [2] |
| --- | --- | --- |
| B1 | binds |  |
| B2 | binds |  |
| B3 |  | ~3 fold |
